Data published in US7482008B1, “Human T cell reactive feline protein (TRFP) isolated from house dust and uses therefor” (Merck Patent GmbH, priority 1989, dated 2009).

B1: peptide YXZ: recombinant peptide: peptide Y, peptide X and peptide Z linked in this order (protein)
chain: MGHHHHHHEFKALPVVLENARILKNCVDAKMTEEDKEKRDVDLFLTGTPDEYVEQVAQYKALPVFFAVANGNELLLDLSLTKVNATEPER
B2: peptide YZX: recombinant peptide: peptide Y linked to peptide Z linked to peptide X (SEQ ID NO: 103) (protein)
chain: MGHHHHHHEFLVPRGSKALPVVLENARILKNCVDAKMTEEDKEFFAVANGNELLLDLSLTKVNATEPERKRDVDLFLTGTPDEYVEQVAQYKALPV
B3: peptide ZYX: recombinant peptide: peptide Z, peptide Y and peptide X linked in this order (protein)
chain: MGHHHHHHLVPRGSFFAVANGNELLLDLSLTKVNATEPERKALPVVLENARILKNCVDAKMTEEDKEKRDVDLFLTGTPDEYVEQVAQYKALPV
B4: peptide XYZ: recombinant peptide: peptide X, peptide Y and peptide Z linked in this order (protein)
chain: MGHHHHHHLVPRGSKRDVDLFLTGTPDEYVEQVAQYKALPVVLENARILKNCVDAKMTEEDKEFFAVANGNELLLDLSLTKVNATEPER
B5: recombinant chain 2: recombinant TRFP chain 2 expressed in E. coli (protein, UniProt P30440 18-109, looked up)
Major allergen I polypeptide …: VKMAETCPIFYDVFFAVANGNELLLDLSLTKVNATEPERTAMKKIQDCYVENGLISRVLDGLVMTTISSSKDCMGEAVQNTVEDLKLNTLGR
modifications: expressed in E. coli
notes: recombinant TRFP chain 2 expressed in E. coli
B6: peptide XZY: recombinant peptide: peptide X, peptide Z and peptide Y linked in this order (protein)
chain: MGHHHHHHEFKRDVDLFLTGTPDEYVEQVAQYKALPVFFAVANGNELLLDLSLTKVNATEPERKALPVVLENARILKNCVDAKMTEEDKE

How the values were obtained:
[1] = tested on: human IgE (cat allergic patient plasma); experiment: Direct binding ELISA of human IgE to coated antigen; details: direct binding ELISA or similar protocol
Protocol: The basic format of these ELISA assays was a direct binding assay wherein the antigen was coated onto the wells of a 96 well microtitre dish and then antibodies in solution are added and assayed for the binding capacity. The protocol for these assays was as follows:
The peptides were conjugated to HSA (human serum albumin) by two different methods based on their chemical structure. […] Both conjugates were filter purified and dialyzed against PBS. In the ELISA assay, the unbound coating antigens were removed and the wells were blocked with 0.5% gelatin in PBS, 200 μl/well for 2 hours at room temperature. The antibody solution was a pool of plasma samples from 20 patients that were skin test positive for commercial cat extract which was serially diluted with PBS-Tween 20 (PBS with 0.05% nonionic detergent Tween-Sigma, St. Louis Mo.) and 100 μl/well was added and incubated overnight at 4° C. (plasma dilutions are tested in duplicate). […] The second antibody (biotinylated goat anti-Human IgE, 1:1000 Kirkegaard & Perry Laboratories Inc. Gaithersburg, Md.), was added at 100 μl/well for one hour at room temperature. This solution was removed and streptavidin-HRPO, 1:1000, (Southern Biotechnology Associates, Inc., Birmingham, Ala.) was then added at 100 μl/well for one hour at room temperature (all wells were washed three times with PBS-Tween between each incubation step). TMB Membrane Peroxidase Substrate system (Kirkegaard & Perry Laboratories) was freshly mixed, and added at 100 μl/well. The color was allowed to develop for 2-5 minutes. The reaction was stopped by the addition of […] of 1 M phosphoric acid. Plates are read on a Microplate EL 310 Autoreader (Biotek Instruments, Winooski, Vt.) with a 450 nm filter. The absorbance levels of duplicate wells were averaged.

[2] = tested on: T cells from cat-allergic patients; experiment: Secondary proliferation assay of T cells primed with TRFP, peptide YXZ or peptide YZX; assay type: cell-based, human
Protocol: The human cat allergic T cell response to peptides produced as above was examined. […] Peptide YZX was cleaved with thrombin as described in Example 25. Viable cells were then purified by Ficoll-Hypaque centrifugation and cultured for 2 additional weeks in RPMI-1640/5% AB serum containing 5 units recombinant human IL-2/ml and 5 units recombinant human IL-4/ml. The resting T cells were then tested in a secondary proliferation assay using a 96 well microtiter plate to assess T cell responses to various TRFP proteins or peptides (TRFP antigens). For assay, 2×10^4 resting T cells were cultured for 3 days at 37° C. in the presence of 2×10^4 autologous Epstein-Barr virus transformed B cells (25,000 Rads) as antigen presenting cells with various concentrations of antigen in 200 μl per well. Each well then received 1 μCi tritiated thymidine for 16 hours. The counts incorporated were collected onto glass fiber filters and processed for liquid scintillation counting. The stimulation indices for responses to each antigen were then calculated as the maximum CPM in response to antigen divided by the medium control CPM. A stimulation index of 2.5 was considered to be a positive T cell response. A summary of the results of 3 such experiments (patients 522, 519, and 386 is shown in FIG. 35a, FIG. 35b and FIG. 35c). As compared to the experiments shown in FIGS. 35a and 35b in the experiment shown in […], Fel-1.4 (chain 1, amino acid residues 6-17) was substituted for Fel-1.2 (chain 1, amino acid residues 1-17) and Fel-33.3 (chain 2, amino acid residues 26-40) was substituted for Fel-18 (chain 2, amino acid residues 23-48) in order to more closely resemble the constituent amino acids of peptides X and Z. In addition, in this experiment one peptide derived from the Y-Z junction of peptide YZX (amino acid residues 50-55 from chain 1 of TRFP and amino acid residues 14-19 from chain 2 of TRFP) and one peptide derived from the Z-X junction of peptide YZX (amino acid residues 34-39 of chain 2 of TRFP and amino acid residues 7-12 of chain 1 of TRFP) were synthesized and tested. These junction peptides were produced in order to determine whether these areas of peptide YZX produce a non-native epitope when formed in the peptide.

B6CBAF1 mice = experiment: Murine T cell response after immunization with peptide YZX, IL-2 production (CTLL-2); assay type: in vivo, mouse; details: mice immunized with 100 μg peptide YZX in CFA; label = antigen in culture
Protocol: 10 B6CBAF1 mice were immunized subcutaneously at the base of the tail and in the thigh region with 100 μg of peptide YZX in complete Freund's adjuvant. After 10 days, the inguinal, paraaortic, and popliteal nodes of the immunized mice were removed and pooled. The lymph node cells were suspended in cold RPMI 1640 with 1% fetal bovine serum (FBS) by passage through stainless steel mesh. The cells were washed 2 times with cold RPMI-1640 containing 1% FBS and maintained at 4° C.
The lymph node cells were plated at 4×10^6 cells/ml in RPMI 1640 with 10% FBS, 250 μg/ml penicillin G, 100 μg/ml streptomycin, and 5×10^−5 M 2-mercaptoethanol. […] After 24 hours, 50 μl of supernatant was removed from each culture and frozen overnight to eliminate live cell carryover. The supernatant was warmed to […] and washed. CTLL-2 indicator cells (ATCC # T1B 214) were added (5×10^3 cells/well). This indicator cell line requires IL-2 for continued growth. After 24 hours, H^3-thymidine (1 μCi/well) was added and the cells were further incubated for 4 hours. The plates were frozen and thawed, harvested on a Tomtec 96 well harvester (Tomtec, Orange, Conn.), and counted on a Betaplate beta counter (Pharmacia, Gaithersburg, Md.).

human IgE [3] = experiment: SDS/PAGE Western immunoblot of human IgE binding, plasma from patient #417; details: patient #417 plasma
Protocol: Western immunoblot analysis of the peptides produced in above was performed. The concentration of all protein samples (e.g., TRFP, recombinant chain 1 of TRFP, recombinant chain 2 of TRFP, peptide XYZ, peptide XZY, peptide YXZ, peptide YZX, peptide ZXY and peptide ZYX) for gel electrophoresis was determined by the BCA method (Pierce Co.). All protein samples were loaded on the gel at 5 μg/lane except TRFP at 10 μg/lane. Protein separation was carried out on a 15% acrylamide gel, and transfer was performed by electroblotting at 1.5 Amps for 1.5 hours onto nitrocellulose paper (Schleicher and Schuell, 0.1 microns) in a Hoeffer apparatus according to the protocol of Towbin, H., T. Stachlin, and J. Gordon, PNAS 76:4350 (1979). Proteins were rinsed in blot solution (25 mM Tris-HCl 7.5, 0.171 M NaCl and 0.5 ml/liter Tween 20). The blot was then blocked for one hour in blocking solution (1% milk in blot solution). Plasma from patient #417, used as a primary antibody source, was diluted in blocking solution to 10% and preabsorbed for 1.5 hours with unused nitrocellulose (2 cm×15 cm). The prepared human plasma was then incubated overnight on an orbital shaker with the protein blot section of interest. Following the first antibody incubation the blot section was washed three times, each wash involved a fifteen minute incubation in blot solution. The second antibody, specific for human IgE (biotinylated goat anti-human IgE, KPL Inc.), was diluted 1:2500 in blot solution and the incubation proceeded for two hours. Excess second antibody was subsequently removed by three 15 minute incubations with blot solution. ^125I Iodinated streptavidin (Amersham) was diluted 1:2500 in blot solution and incubated with blots for 1 hour, at 2 μCi in a 50 ml incubation volume. Blot sections were then washed with blot solution until the detectable radioactivity in the waste solution decreased to background levels. The blot section was then wrapped in saran wrap and exposed to film overnight with a cronex intensifying screen at −80° C.

human IgE [4] = experiment: ELISA of human IgE binding, plasma from patient #669; details: patient #669 plasma
Protocol: Corning assay plates (#25882-96) were coated with 10 μg/ml of each coating antigen (i.e., TRFP, chain 1 (recombinant chain 1 of TRFP), chain 2 (recombinant chain 2 of TRFP), peptide XYZ, peptide XZY, peptide YXZ, peptide YZX, peptide ZXY and peptide ZYX) listed in FIG. 34 at 50 μl/well and incubated overnight at 4° C. The coating antigens were removed and the wells were blocked with 0.5% gelatin in PBS, 200 μl/well for 2 hours at room temperature. Plasma from patient #669 was serially diluted with PBS-Tween 20 (PBS with 0.05% nonionic detergent Tween-20 Sigma, St. Louis Mo.) and 100 μl/well was added and incubated overnight at 4° C. (plasma dilutions are tested in duplicate). The second antibody (biotinylated goat anti-Human IgE, 1:1000, Kirkegaard & Perry Laboratories Inc. Gaithersburg, Md.), was added at 100 μl/well for one hour at room temperature. This solution was removed and streptavidin-HRPO, 1:10,000 (Southern Biotechnology Associates, Inc., Birmingham, Ala.) was then added at 100 μl/well for one hour at room temperature (all wells were washed three times with PBS-Tween between each incubation step). TMB Membrane Peroxidase Substrate system (Kirkegaard & Perry Laboratories) was freshly mixed, and added at 100 μl/well. The color was allowed to develop for 2-5 minutes. The reaction was stopped by the addition of 100 μl/well of 1M phosphoric acid. Plates were read on a Microplate EL 310 Autoreader (Biotek Instruments, Winooski, Vt.) with a 450 nm filter. The absorbance levels of duplicate wells were averaged.

[5] = patient 386, T cells primed with YZX
[6] = patient 519, cells primed with peptide YXZ

Molecule	specific IgE binding [1]	T cell response of pooled lymph node cells (IL-2 production) (B6CBAF1 mice)	IgE binding, Western immunoblot (human IgE [3])	also measured
Fel 8-1: TRFP chain 1 amino acids 5-33 (AVKRDVDLFLTGTPDEYVEQVAQYKALPV; UniProt P30438 27-55, looked up, fragment)	None of these peptides showed IgE binding	–	–	–
Fel 31-1: TRFP chain 2 amino acids 14-40 (VTQALGVKMAETCPIFYDVFFAVANGN)	None of these peptides showed IgE binding	–	–	–
peptide Z: amino acid residues 14-39 from chain 2 of TRFP (SEQ. ID. NO: 19) (FFAVANGNELLLDLSLTKVNATEPER)	None of these peptides showed IgE binding	significant response	–	T cell response [2, 5]: respond at a similar level or better; T cell response [2, 6]: positive responses; T cell response ([2]; patient 522, T cells primed with YXZ): respond at a similar level or better
B1	–	–	negative for IgE binding	T cell response [2, 6]: positive responses; T cell response ([2]; patient 519, native TRFP-primed T cells): respond; T cell response ([2]; patient 522, T cells primed with native TRFP, SI 2.5 positive): positively respond
B2	–	respond well	negative for IgE binding	T cell response [2, 5]: respond at a similar level or better; T cell response ([2]; patient 386, T cells primed with native TRFP): positively respond
B3	–	strong T cell responses	negative for IgE binding	–
B4	–	–	show IgE binding	IgE binding, ELISA (human IgE [4]): slight signal
B5	–	–	reduced compared to chain 1	IgE binding, ELISA (human IgE [4]): somewhat lower binding
B6	–	strong T cell responses	negative for IgE binding	–
